Test results: publication PMC3257569 (The Journal of Cell Biology, 2011)
Where a chain is given by its changes, count along the chain named.

B1: recombinant Lsp1 (natural protein, S. cerevisiae, UniProt Q12230 1-341, looked up)
chain: MHRTYSLRNQRAPTAAELQAPPPPPSSTKSKFFGKASIASSFRKNAAGNFGPELARKLSQLVKTEKGVLRAMEVVASERREAAKQLSLWGADNDDDVSDVTDKLGVLIYELGELQDQFIDKYDQYRVTLKSIRNIEASVQPSRDRKEKITDEIAHLKYKDPQSTKIPVLEQELVRAEAESLVAEAQLSNITREKLKAAYSYMFDSLRELSEKFALIAGYGKALLELLDDSPVTPGEARPAYDGYEASRQIIMDAESALESWTLDMAAVKPTLSFHQTVDDVYEDEDGEEEEEPEIQNGDIPGQVVEEEEVEWTTEVPVDDEAHEADHHVSQNGHTSGSENI
B2: lsp1ΔN (domain or fragment, S. cerevisiae, UniProt Q12230 36-341, looked up)
chain: ASIASSFRKNAAGNFGPELARKLSQLVKTEKGVLRAMEVVASERREAAKQLSLWGADNDDDVSDVTDKLGVLIYELGELQDQFIDKYDQYRVTLKSIRNIEASVQPSRDRKEKITDEIAHLKYKDPQSTKIPVLEQELVRAEAESLVAEAQLSNITREKLKAAYSYMFDSLRELSEKFALIAGYGKALLELLDDSPVTPGEARPAYDGYEASRQIIMDAESALESWTLDMAAVKPTLSFHQTVDDVYEDEDGEEEEEPEIQNGDIPGQVVEEEEVEWTTEVPVDDEAHEADHHVSQNGHTSGSENI
B3: recombinant Pil1 (natural protein, S. cerevisiae, UniProt P53252 1-339, looked up)
chain: MHRTYSLRNSRAPTASQLQNPPPPPSTTKGRFFGKGGLAYSFRRSAAGAFGPELSRKLSQLVKIEKNVLRSMELTANERRDAAKQLSIWGLENDDDVSDITDKLGVLIYEVSELDDQFIDRYDQYRLTLKSIRDIEGSVQPSRDRKDKITDKIAYLKYKDPQSPKIEVLEQELVRAEAESLVAEAQLSNITRSKLRAAFNYQFDSIIEHSEKIALIAGYGKALLELLDDSPVTPGETRPAYDGYEASKQIIIDAESALNEWTLDSAQVKPTLSFKQDYEDFEPEEGEEEEEEDGQGRWSEDEQEDGQIEEPEQEEEGAVEEHEQVGHQQSESLPQQTTA
B4: recombinant pil1(4D) (natural protein, S. cerevisiae, UniProt P53252 1-339, looked up)
chain: B3 chain with S45D, S59D, S230D, T233D
B5: pil1ΔN (domain or fragment, S. cerevisiae, UniProt P53252 36-339, looked up)
chain: GGLAYSFRRSAAGAFGPELSRKLSQLVKIEKNVLRSMELTANERRDAAKQLSIWGLENDDDVSDITDKLGVLIYEVSELDDQFIDRYDQYRLTLKSIRDIEGSVQPSRDRKDKITDKIAYLKYKDPQSPKIEVLEQELVRAEAESLVAEAQLSNITRSKLRAAFNYQFDSIIEHSEKIALIAGYGKALLELLDDSPVTPGETRPAYDGYEASKQIIIDAESALNEWTLDSAQVKPTLSFKQDYEDFEPEEGEEEEEEDGQGRWSEDEQEDGQIEEPEQEEEGAVEEHEQVGHQQSESLPQQTTA

Columns and labels:
[1] = target: the molecule itself; assay: velocity sedimentation in a sucrose gradient
[2] = target: the molecule itself; assay: negative staining and EM

Protein | binding result [1] | binding result [2]
B1 | binds | –
B2 | – | binds
B3 | binds | –
B4 | – | binds
B5 | – | binds
